Assay results from article PMC12329521.
Read-outs that look alike come from different tables or passages of the source.

What was measured:
Experiment in all cases: SEC
[1] = biological target: PLP-bound Rv2531c (Mycobacterium tuberculosis)
[2] = biological target: Rv2531c (apo) (Mycobacterium tuberculosis)
[3] = biological target: Rv2531c (apo) (Mycobacterium tuberculosis); remark: listed apart in the source

Substance | stoichiometry N [1] | stoichiometry N [2] | stoichiometry N [3]
PLP-bound Rv2531c (enzyme) | 2 |  | 
Rv2531c (apo) (enzyme) |  | 4 | 4
